Laboratory results from article PMC9497888.

Biological target: fibrin (human) (UniProt P02671)
Chain of UniProt P02671 (P02671 36-866, chain 1 of 3): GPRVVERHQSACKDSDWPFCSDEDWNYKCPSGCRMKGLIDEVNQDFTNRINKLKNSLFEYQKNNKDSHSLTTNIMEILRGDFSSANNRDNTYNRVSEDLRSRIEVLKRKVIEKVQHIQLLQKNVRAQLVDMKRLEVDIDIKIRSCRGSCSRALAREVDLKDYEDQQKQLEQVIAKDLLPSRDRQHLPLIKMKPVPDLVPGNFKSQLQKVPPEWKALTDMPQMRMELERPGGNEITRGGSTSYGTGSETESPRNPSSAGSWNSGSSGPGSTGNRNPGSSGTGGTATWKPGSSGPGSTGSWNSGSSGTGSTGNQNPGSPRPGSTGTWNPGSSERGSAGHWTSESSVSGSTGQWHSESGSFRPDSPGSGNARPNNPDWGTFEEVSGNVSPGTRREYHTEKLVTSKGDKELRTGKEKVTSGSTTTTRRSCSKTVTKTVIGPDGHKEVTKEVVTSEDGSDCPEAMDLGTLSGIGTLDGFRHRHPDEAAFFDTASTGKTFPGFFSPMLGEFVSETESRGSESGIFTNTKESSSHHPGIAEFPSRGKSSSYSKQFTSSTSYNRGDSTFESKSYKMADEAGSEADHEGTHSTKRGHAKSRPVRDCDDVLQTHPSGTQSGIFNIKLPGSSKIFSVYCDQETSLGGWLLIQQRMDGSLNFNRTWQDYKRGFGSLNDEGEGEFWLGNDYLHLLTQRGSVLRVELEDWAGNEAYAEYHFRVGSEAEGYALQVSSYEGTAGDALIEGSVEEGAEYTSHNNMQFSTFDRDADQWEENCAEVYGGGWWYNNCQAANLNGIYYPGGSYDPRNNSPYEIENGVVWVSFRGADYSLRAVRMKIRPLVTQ
Chain of UniProt P02671 (P02675 45-491, chain 2 of 3, further chain): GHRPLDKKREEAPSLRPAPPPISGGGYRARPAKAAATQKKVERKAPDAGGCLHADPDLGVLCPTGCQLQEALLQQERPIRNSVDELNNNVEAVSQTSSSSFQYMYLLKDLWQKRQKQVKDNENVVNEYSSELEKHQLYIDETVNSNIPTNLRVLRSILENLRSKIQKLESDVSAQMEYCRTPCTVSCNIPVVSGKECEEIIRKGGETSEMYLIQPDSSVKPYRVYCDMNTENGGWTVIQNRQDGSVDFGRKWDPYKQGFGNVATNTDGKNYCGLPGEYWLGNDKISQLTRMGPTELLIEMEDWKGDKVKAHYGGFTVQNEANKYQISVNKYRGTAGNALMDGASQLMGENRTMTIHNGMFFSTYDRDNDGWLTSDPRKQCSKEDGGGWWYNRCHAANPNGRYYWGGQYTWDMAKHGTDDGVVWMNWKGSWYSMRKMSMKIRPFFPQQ
Chain of UniProt P02671 (P02679 27-453, chain 3 of 3, further chain): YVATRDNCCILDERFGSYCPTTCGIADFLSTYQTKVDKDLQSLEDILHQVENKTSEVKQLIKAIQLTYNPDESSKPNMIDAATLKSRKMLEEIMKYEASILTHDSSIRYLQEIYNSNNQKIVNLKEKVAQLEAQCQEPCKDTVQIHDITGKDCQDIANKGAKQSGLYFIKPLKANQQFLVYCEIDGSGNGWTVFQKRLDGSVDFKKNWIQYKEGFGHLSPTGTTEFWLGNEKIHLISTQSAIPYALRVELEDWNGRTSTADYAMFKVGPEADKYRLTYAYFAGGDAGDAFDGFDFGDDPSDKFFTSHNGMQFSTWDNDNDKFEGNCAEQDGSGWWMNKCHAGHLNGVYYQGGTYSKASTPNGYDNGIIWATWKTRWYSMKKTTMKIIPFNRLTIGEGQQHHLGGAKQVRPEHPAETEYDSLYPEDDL

Q: Which stimulation factor of S-2765 hydrolysis: Kcat/Km with fibrin cofactor (100 μg/mL) over Kcat/Km without cofactor does the source give for “ANGlyα2+1 (DSPAα2 N155S, added N-glycosylation site N153) (from UniProt P15638 37-477) (enzyme)” here?
A: 3.1 fold

Q: With “QNGlyα2 (DSPAα2 N185Q-N398Q) (from UniProt P15638 37-477) (enzyme)” as the substance, how does the stimulation factor of S-2765 hydrolysis: Kcat/Km with fibrin cofactor (100 μg/mL) over Kcat/Km without cofactor read?
A: 1.7 fold

Q: How did the stimulation factor of S-2765 hydrolysis: Kcat/Km with fibrin cofactor (100 μg/mL) over Kcat/Km without cofactor turn out when “QNGlyα2-1 (DSPAα2 N185Q) (from UniProt P15638 37-477) (enzyme)” was run?
A: 2 fold

Q: How did the stimulation factor of S-2765 hydrolysis: Kcat/Km with fibrin cofactor (100 μg/mL) over Kcat/Km without cofactor turn out when “QNGlyα2-2 (DSPAα2 N398Q) (from UniProt P15638 37-477) (enzyme)” was run?
A: 7.4 fold

Q: Which stimulation factor of S-2765 hydrolysis: Kcat/Km with fibrin cofactor (100 μg/mL) over Kcat/Km without cofactor does the source give for “recombinant DSPAα2 (bat plasminogen activator α2), wild type (from UniProt P15638 37-477) (enzyme)” here?
A: 11.3 fold
